Test results: publication PMC12668182

Tests used:
[1] = target: HaloTag-CSB, full length, JaneliaFluor-labelled (human) (UniProt Q03468); assay: single-molecule fluorescence on tethered DNA (SMADNE, LUMICKS C-Trap); two-colour HaloTag-CSB nuclear extracts (JF552 and JF635) on lambda dsDNA; colocalisation and photon counts; 20 mM HEPES pH 7.5, 10% glycerol, 1 mM DTT, 1 mM MgCl2; 30 C; DNA present
[2] = target: HaloTag-CSB, full length, JaneliaFluor-labelled (human) (UniProt Q03468); assay: single-molecule fluorescence on tethered DNA (SMADNE, LUMICKS C-Trap); oligomerisation state of HaloTag-CSB (photon counts) at the site-specific ICL repair intermediate, alone or colocalised with SNM1A; DNA present
[3] = target: HaloTag-CSB, full length, JaneliaFluor-labelled (human) (UniProt Q03468); assay: single-molecule fluorescence on tethered DNA (SMADNE, LUMICKS C-Trap); oligomerisation state of HaloTag-CSB (photon counts) in events colocalised with SNM1A on lambda dsDNA; DNA present
[4] = target: full-length CSB (ERCC6), wild type, recombinant (human) (UniProt Q03468); assay: SEC; purification of full-length CSB alone on Superdex S200; retention volume compared with calibration curves; 50 mM HEPES pH 8, 300 mM NaCl, 1 mM TCEP; monomer to dimer
[5] = tested on: HaloTag-CSB full-length (nuclear extract, SMADNE); assay: single-molecule (SMADNE, optical tweezers C-Trap); details: EMSA: 20 mM HEPES-KOH pH 7.5, 50 mM KCl, 0.05% Triton X-100, 0.5 mM TCEP, 5% glycerol, 1 nM oligo, 4 C, C-Trap: 20 mM HEPES pH 7.5, 10% glycerol, 1 mM DTT
[6] = tested on: HaloTag-SNM1A catalytic domain; assay: single-molecule (optical tweezers C-Trap); details: EMSA: 20 mM HEPES-KOH pH 7.5, 50 mM KCl, 0.05% Triton X-100, 0.5 mM TCEP, 5% glycerol, 1 nM oligo, 4 C, C-Trap: 20 mM HEPES pH 7.5, 10% glycerol, 1 mM DTT
[7] = tested on: HaloTag-CSB full-length (nuclear extract, SMADNE);HaloTag-SNM1A catalytic domain; assay: single-molecule (optical tweezers C-Trap); details: EMSA: 20 mM HEPES-KOH pH 7.5, 50 mM KCl, 0.05% Triton X-100, 0.5 mM TCEP, 5% glycerol, 1 nM oligo, 4 C, C-Trap: 20 mM HEPES pH 7.5, 10% glycerol, 1 mM DTT
[8] = triazole click ICL (azide-C6-amino-dA x octadiynyl-dU), 5'P flap

## HaloTag-CSB, full length, JaneliaFluor-labelled (from UniProt Q03468 1-1493) (natural protein)
[1]
  percent of CSB binding events on lambda DNA that were dimeric: 35%
  percent of single colour tracks in which a dimeric CSB bound to DNA: 20%
[2]
  percent of CSB events at the ICL repair intermediate that were dimeric: 78%
  percent of SNM1A:CSB events on ICL repair intermediates with dimeric CSB: 90%
[3]
  percent of CSB:SNM1A colocalisation events on lambda DNA in which CSB was a dimer: 73%

## full-length CSB (ERCC6), wild type, recombinant (from UniProt Q03468 1-1493) (natural protein)
[4]
  stoichiometry N: 2

## lambda DNA (undamaged)
[5]
  Kd: 1.2 nM
[6]
  Kd: 21.8 nM
[7]
  Kd: 17.5 nM

## ICL flap repair intermediate (C-Trap)
[6]; [8]
  Kd: 355 nM
[7]; [8]
  Kd: 45 nM
